For data set [1], the target named is LAP-mIFNβ fusion protein (human (LAP of TGFβ) fused to mouse (IFNβ)). In words: cell-based or functional assay.
Data set [2] has as its system CHO-derived latent TGFβ binding protein (LTBP).
Data set [3] deals with 75 kDa glycosylated product of LAP-mIFNβ.
Data set [4] concerns 75 kDa glycosylated product of mIFNβ-LAP.
75 kDa glycosylated product of mIFNβ-LAP, sequence (chain, as listed by the source): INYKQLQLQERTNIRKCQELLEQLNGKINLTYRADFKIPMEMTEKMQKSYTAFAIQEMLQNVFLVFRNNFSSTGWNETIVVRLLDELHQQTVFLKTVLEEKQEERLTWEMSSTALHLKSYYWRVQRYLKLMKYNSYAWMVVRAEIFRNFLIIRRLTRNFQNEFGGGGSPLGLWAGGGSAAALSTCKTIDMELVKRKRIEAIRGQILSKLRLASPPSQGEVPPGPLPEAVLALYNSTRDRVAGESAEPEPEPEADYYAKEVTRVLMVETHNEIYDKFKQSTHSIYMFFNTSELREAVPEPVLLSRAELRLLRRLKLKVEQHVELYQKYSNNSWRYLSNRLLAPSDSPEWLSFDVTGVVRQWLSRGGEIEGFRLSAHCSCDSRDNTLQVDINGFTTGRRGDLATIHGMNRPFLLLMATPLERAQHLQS

LAP-mIFNβ fusion protein, sequence (chain, as listed by the source): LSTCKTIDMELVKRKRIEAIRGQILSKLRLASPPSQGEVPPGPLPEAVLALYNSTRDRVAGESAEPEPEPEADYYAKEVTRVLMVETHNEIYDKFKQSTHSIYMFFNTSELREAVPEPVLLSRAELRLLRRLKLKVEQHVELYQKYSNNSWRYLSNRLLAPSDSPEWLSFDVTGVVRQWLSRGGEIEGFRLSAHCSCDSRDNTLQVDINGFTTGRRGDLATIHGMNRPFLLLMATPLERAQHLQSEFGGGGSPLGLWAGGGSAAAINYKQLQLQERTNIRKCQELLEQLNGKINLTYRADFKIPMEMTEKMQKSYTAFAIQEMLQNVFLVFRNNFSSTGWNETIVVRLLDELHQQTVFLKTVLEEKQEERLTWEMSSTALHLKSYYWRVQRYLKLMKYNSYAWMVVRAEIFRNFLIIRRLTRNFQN
active MMP1 (recombinant), sequence (P03956 100-469): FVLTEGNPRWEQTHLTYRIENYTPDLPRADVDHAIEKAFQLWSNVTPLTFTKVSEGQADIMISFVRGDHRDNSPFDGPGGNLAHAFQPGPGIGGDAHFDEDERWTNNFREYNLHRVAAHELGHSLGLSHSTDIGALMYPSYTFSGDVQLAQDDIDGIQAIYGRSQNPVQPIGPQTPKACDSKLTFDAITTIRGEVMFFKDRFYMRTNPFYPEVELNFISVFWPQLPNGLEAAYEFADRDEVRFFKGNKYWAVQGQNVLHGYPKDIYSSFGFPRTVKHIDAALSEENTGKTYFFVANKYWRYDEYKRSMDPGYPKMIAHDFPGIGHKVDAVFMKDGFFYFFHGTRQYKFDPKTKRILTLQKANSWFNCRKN
recombinant pro-MMP9, sequence (P14780 20-707): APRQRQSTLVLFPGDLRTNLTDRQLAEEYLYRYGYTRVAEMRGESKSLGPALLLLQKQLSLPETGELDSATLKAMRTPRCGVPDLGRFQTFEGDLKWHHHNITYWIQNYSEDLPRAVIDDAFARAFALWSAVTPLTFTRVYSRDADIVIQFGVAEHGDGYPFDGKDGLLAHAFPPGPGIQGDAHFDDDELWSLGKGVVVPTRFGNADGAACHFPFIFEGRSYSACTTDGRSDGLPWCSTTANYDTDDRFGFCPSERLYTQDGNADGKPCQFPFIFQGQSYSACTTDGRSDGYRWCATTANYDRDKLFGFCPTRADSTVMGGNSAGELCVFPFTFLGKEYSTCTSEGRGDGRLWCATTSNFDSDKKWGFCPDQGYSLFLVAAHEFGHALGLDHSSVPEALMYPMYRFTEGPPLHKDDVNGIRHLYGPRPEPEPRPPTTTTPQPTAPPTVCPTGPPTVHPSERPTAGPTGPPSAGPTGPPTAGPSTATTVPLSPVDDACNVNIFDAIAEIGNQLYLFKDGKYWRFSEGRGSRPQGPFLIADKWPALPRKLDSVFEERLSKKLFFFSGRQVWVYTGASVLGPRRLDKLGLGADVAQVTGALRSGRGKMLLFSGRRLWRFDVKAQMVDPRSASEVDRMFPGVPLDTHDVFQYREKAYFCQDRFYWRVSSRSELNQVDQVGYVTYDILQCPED

As for active MMP3 (recombinant) (enzyme), the fold activation of antiviral activity (non-concentrated supernatants from MTX amplified cells) in data set [1] amounted to 32 fold.
Same read-out and setting: to active MMP1 (recombinant) (enzyme) belongs 21 fold.
Turning to recombinant pro-MMP9, in the data set on LAP-mIFNβ fusion protein, the mIFNβ biological activity (U/ml) after MMP treatment turned out to be 288 U/ml; the proteolytic cleavage entry is given as “MMP9 could not cleave the fusion proteins”; the “proteolytic cleavage of immunoprecipitated protein, SDS-PAGE” value (“proteolytic cleavage … SDS-PAGE” below) is recorded as “pro-MMP9 or MMP1 did not cleave very efficiently the 57 kDa recombinant product”. Moreover, in the data set with mIFNβ-LAP fusion protein, the mIFNβ biological activity (U/ml) after MMP treatment was 1540 U/ml; the proteolytic cleavage entry is given as “MMP9 could not cleave the fusion proteins”; the “proteolytic cleavage … SDS-PAGE” value is on record as “pro-MMP9 or MMP1 did not cleave very efficiently the 57 kDa recombinant product”.
Turning to active MMP3 (recombinant), the “proteolytic cleavage … SDS-PAGE” value in data set [2] was “The LTBP band was also cleaved by MMP3”; in the data set on LAP-mIFNβ fusion protein it was “MMP3 was capable on its own to digest it into several discreet bands”; with mIFNβ-LAP fusion protein, “MMP3 was capable on its own to digest it into several discreet bands”. The mIFNβ biological activity (U/ml) after MMP treatment was determined as 9220 U/ml in the data set on LAP-mIFNβ fusion protein and 3070 U/ml with mIFNβ-LAP fusion protein.
Turning to active MMP1 (recombinant), the “proteolytic cleavage … SDS-PAGE” value was “MMP1 was capable of cleaving the glycosylated form of the fusion protein” in data set [3], “MMP1 was capable of cleaving the glycosylated form of the fusion protein” in data set [4], “pro-MMP9 or MMP1 did not cleave very efficiently the 57 kDa recombinant product” with LAP-mIFNβ fusion protein and “pro-MMP9 or MMP1 did not cleave very efficiently the 57 kDa recombinant product” in the data set on mIFNβ-LAP fusion protein. Also, the mIFNβ biological activity (U/ml) after MMP treatment in the data set with LAP-mIFNβ fusion protein and with mIFNβ-LAP fusion protein was 6140 U/ml throughout.

For the origin of these results see patent US6942853.
